Consider 1 molecule from patent US20230322880A1 (MEDIKINE, published 2023).

Where no end group is shown, it is not given here.

The target in this assay is T1, IL-7Rα-Fc (CD127 protein, Fc tag; ECD 21-236; ACRObiosystems, Inc, Cat. #ILA-H5258) (human, UniProt P16871 21-236).
T1 construct: range 21-236; also called hu-IL-7Rα subunit; not shown: Fc tag of the purchased protein
T1 sequence (looked up): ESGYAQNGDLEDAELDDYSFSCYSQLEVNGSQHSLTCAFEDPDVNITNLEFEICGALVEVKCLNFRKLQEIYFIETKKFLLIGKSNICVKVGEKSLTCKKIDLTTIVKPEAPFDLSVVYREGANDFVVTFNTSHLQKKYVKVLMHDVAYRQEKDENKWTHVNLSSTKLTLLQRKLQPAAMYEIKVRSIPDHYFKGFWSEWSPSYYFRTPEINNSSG
Briefly: competition binding ELISA, plate-coated receptor, biotinylated reference peptide::NA-HRP tracer. On the procedure: Binding of the synthetic IL-7Rα ligands to IL-7Rα was evaluated using a competition binding ELISA. Microtiter plate wells were coated with IL-7Rα-Fc (CD127 protein, Fc tag; ECD 21-236; ACRObiosystems, Inc, Cat. #ILA-H5258) at 1 μg/mL; 50 μL per well in PBS for at least 1 h. The plate was washed once with wash buffer (200 μL, PBS containing 0.05% Tween®-20 (Sigma). Wells were blocked with blocking buffer (PBS containing 1% BSA (BSA Fraction V; VWR Cat. No. 97061-416) for 1 h. A serial dilution of the peptides was prepared, at twice the final concentration, in assay buffer (PBS containing 0.5% BSA and 0.05% Tween®-20) in a 96-well polypropylene plate. A terminal biotinylated form of the reference IL-7Rα peptide ligand having SEQ ID NO: 300 ([…]) was used to make a precomplex with NeutrAvidin-HRP (NA-HRP; ThermoFisher Cat. No. 31030) (Precomplex referred to as bnPeptide::NA-HRP). The bnPeptide::NA-HRP precomplex was prepared by mixing 1.5 μL 100 μM biotinylated peptide, 2 μL NA-HRP and 11.5 PBS and incubated at 4° C. for at least 45 min. After blocking the wells, the plate was washed with a plate washer and serial dilutions of the peptides were added (50 μL/well) and the plate was incubated at 4° C. for 1 h on a plate shaker. […] Fifty (50) μL of a solution (Surmodics Cat. #LSTP-0100-0) was then added and the plate read at 450 nm. […]

B1: IL-7Rαγc ligand having SEQ ID NO: 30 (peptide)
peptide: GWGIPWCTLDPGSLQCAWLGKHGGGGSGGVVCQDWEGVELCWQGG
modifications: disulfide (positions not given here); also: two disulfide bridges, pairing not given here
On to B1, for which the binding result is “binds”.
